From US20140178332A1 (published 2014)
Numbering of substitutions follows the chain as printed.

T1: recombinant purified cyno IL-12 p70 (cynomolgus monkey)
T1 chain 1: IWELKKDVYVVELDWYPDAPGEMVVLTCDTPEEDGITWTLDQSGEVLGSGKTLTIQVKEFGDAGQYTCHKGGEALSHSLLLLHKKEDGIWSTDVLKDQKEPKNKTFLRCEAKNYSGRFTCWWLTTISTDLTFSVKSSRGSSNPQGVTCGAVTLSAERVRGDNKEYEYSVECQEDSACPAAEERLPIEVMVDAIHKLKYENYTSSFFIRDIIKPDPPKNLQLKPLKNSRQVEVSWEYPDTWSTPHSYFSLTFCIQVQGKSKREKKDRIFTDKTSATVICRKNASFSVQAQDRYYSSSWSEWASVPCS
T1 chain 2: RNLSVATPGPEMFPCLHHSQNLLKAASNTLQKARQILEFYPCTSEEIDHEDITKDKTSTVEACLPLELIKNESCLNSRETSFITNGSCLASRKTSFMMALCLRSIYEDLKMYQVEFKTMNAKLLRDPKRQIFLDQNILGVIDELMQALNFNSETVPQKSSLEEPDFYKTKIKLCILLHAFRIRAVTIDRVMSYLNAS

T2: recombinant purified human IL-12 p70 (human, UniProt P29459 23-219)
T2 sequence 1: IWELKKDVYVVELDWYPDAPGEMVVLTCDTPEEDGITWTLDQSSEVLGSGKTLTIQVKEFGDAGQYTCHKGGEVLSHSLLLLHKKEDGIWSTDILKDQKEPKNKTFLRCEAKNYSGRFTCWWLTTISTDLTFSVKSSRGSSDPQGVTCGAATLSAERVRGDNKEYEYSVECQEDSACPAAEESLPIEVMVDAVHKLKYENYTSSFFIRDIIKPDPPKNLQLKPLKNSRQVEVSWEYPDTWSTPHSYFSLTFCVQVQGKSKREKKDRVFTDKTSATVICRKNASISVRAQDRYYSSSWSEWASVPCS
T2 sequence 2: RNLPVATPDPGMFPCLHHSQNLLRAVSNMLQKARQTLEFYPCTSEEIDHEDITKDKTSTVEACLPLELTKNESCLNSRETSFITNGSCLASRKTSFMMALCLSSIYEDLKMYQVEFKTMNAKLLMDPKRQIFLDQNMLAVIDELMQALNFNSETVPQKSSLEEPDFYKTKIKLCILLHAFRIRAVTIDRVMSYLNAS

B1: CDR grafted anti IL-12p40 antibody 8E1.1 (antibody, human IgG1, kappa, L234A L235A, V domains shown)
VH: EVQLVESGGGLVQPGGSLRLSCAASGFTFSDYGMVWVRQAPGKGLEWVGSISSGSSNIYYADTVKGRFTISRDDSKNSLYLQMNSLKTEDTAVYYCARNPYWGQGTTVTVSS
VL: DIQMTQSPSSLSASVGDRVTITCKASQNVGTNVAWYQQKPEKAPKSLIYSASHRYSGVPSRFSGSGSGTDFTLTISSLQPEDFATYYCQQYNSYPLTFGGGTKVEIKR
notes: Full-length CDR-grafted antibody, COS cells
B2: CDR grafted anti IL-12p40 antibody 1D4.1 (antibody, human IgG1, kappa, L234A L235A, V domains shown)
VH: EVTLRESGPALVKPTQTLTLTCTFSGFSLSKSVMGVSWIRQPPGKALEWLAHIYWDDDKYYNPSLKSRLTISKDTSKNQVVLTMTNMDPVDTATYYCARRGIRSAMDYWGQGTTVTVSS
VL: DIVMTQSPDSLAVSLGERATINCKASQSVSNDVAWYQQKPGQPPKLLIYYASNRYTGVPDRFSGSGSGTDFTLTISSLQAEDVAVYYCQQDYNSPWTFGGGTKVEIKR
notes: as for B1
B3: CDR grafted anti IL-12p40 antibody 3G7.1 (antibody, human IgG1, kappa, L234A L235A, V domains shown)
VH: EVQLVQSGAEVKKPGSSVKVSCKASGGTFSDYWIEWVRQAPGQGLEWMGGFSHGSGSTNYNEKFKGRVTITADKSTSTAYMELSSLRSEDTAVYYCARRRFRGMDYWGQGTTVTVSS
VL: B2 VL with N93S, T97S
notes: as for B1
B4: CDR grafted anti IL-12p40 antibody 1D4.2 (antibody, human IgG1, kappa, L234A L235A, V domains shown)
VH: B2 VH with R5K, A10V, Q16E, F24V, N78S
VL: EIVMTQSPATLSVSPGERATLSCKASQSVSNDVAWYQQKPGQAPRLLIYYASNRYTGIPARFSGSGSGTEFTLTISSLQSEDFAVYYCQQDYNSPWTFGGGTKVEIKR
notes: as for B1
B5: CDR grafted anti IL-12p40 antibody 1A6.1 (antibody, human IgG1, kappa, L234A L235A, V domains shown)
VH: EVTLRESGPALVKPTQTLTLTCTFSGFSLSTSGMGVSWIRQPPGKALEWLAHIWWDGDNYYNPSLKSRLTISKDTSKNQVVLTMTNMDPVDTATYYCARRTRVNYAMDYWGQGTTVTVSS
VL: B2 VL
notes: as for B1
B6: CDR grafted anti IL-12p40 antibody 1A6.6 (antibody, human IgG1, kappa, L234A L235A, V domains shown)
VH: B5 VH with R5K, A10V, Q16E, F24V, N78S
VL: B2 VL
notes: as for B1
B7: CDR grafted anti IL-12p40 antibody 1D4.3 (antibody, human IgG1, kappa, L234A L235A, V domains shown)
VH: B2 VH
VL: B4 VL
notes: as for B1
B8: CDR grafted anti IL-12p40 antibody 1A6.2 (antibody, human IgG1, kappa, L234A L235A, V domains shown)
VH: B5 VH with R5K, A10V, Q16E, F24V, N78S
VL: B4 VL
notes: as for B1
B9: CDR grafted anti IL-12p40 antibody 3G7.2 (antibody, human IgG1, kappa, L234A L235A, V domains shown)
VH: B3 VH with S16A, G27Y, S30T, I70M, A72T, K74T, S84R, E89D
VL: B4 VL with N93S, T97S
notes: as for B1
B10: CDR grafted anti IL-12p40 antibody 1A6.5 (antibody, human IgG1, kappa, L234A L235A, V domains shown)
VH: B5 VH
VL: B4 VL
notes: as for B1

Biological target: T1, recombinant purified cyno IL-12 p70
Assay: cell-based or functional assay

Av. IC50 (nM) Cyno IL-12, PHA blast assay | Binder
4.6 nM | B1
1.5 nM | B2
1.2 nM | B3
3 nM | B4
0.57 nM | B5
0.14 nM | B6
1.6 nM | B7
0.84 nM | B8
0.7 nM | B9
1.1 nM | B10

Biological target: T2, recombinant purified human IL-12 p70
Assay: cell-based or functional assay

Av. IC50 (nM) Hu IL-12, PHA blast assay | Binder
2.8 nM | B1
0.47 nM | B2
0.56 nM | B3
3 nM | B4
0.48 nM | B5
0.59 nM | B6
0.83 nM | B7
1.1 nM | B8
0.24 nM | B9
1.9 nM | B10

Biological target: T2, recombinant purified human IL-12 p70
Assay: SPR (Biacore) as in Example 1.1.B, human IL-12p70
Protocol: Approximately 5000 RU of goat anti-mouse IgG, (Fcγ), fragment specific polyclonal antibody (Pierce Biotechnology Inc, Rockford, Ill.) diluted in 10 mM sodium acetate (pH 4.5) was directly immobilized across a CM5 research grade biosensor chip using a standard amine coupling kit according to manufacturer's instructions and procedures at 25 μg/ml. Unreacted moieties on the biosensor surface were blocked with ethanolamine. Modified carboxymethyl dextran surface in flowcell 2 and 4 was used as a reaction surface. Unmodified carboxymethyl dextran without goat anti-mouse IgG in flow cell 1 and 3 was used as the reference surface. For kinetic analysis, rate equations derived from the 1:1 Langmuir binding model were fitted simultaneously to association and dissociation phases of all eight injections (using global fit analysis) with the use of Biaevaluation 4.0.1 software. Purified antibodies were diluted in HEPES-buffered saline for capture across goat anti-mouse IgG specific reaction surfaces. Mouse antibodies to be captured as a ligand (25 μg/ml) were injected over reaction matrices at a flow rate of 5 μl/min. The association and dissociation rate constants, kₒₙ (unit M⁻¹ s⁻¹) and koff (unit s⁻¹) were determined under a continuous flow rate of 25 μl/min. Rate constants were derived by making kinetic binding measurements at ten different antigen concentrations ranging from 10-200 nM. The equilibrium dissociation constant (unit M) of the reaction between mouse antibodies and recombinant purified human IL-12 p70 or recombinant purified human IL-12 p40 was then calculated from the kinetic rate constants by the following formula: KD=koff/kₒₙ. Binding is recorded as a function of time and kinetic rate constants are calculated. In this assay, on-rates as fast as 10⁶M⁻¹ s⁻¹ and off-rates as slow as 10⁻⁶ can be measured. […]

Kd | koff | kon | Binder
1.7 nM | 0.00087 s⁻¹ | 520000 M⁻¹ s⁻¹ | B1
0.12 nM | 2.9e-05 s⁻¹ | 260000 M⁻¹ s⁻¹ | B2
0.22 nM | 9.1e-05 s⁻¹ | 420000 M⁻¹ s⁻¹ | B3
1.7 nM | 0.00026 s⁻¹ | 160000 M⁻¹ s⁻¹ | B4
0.27 nM | 2.9e-05 s⁻¹ | 110000 M⁻¹ s⁻¹ | B5
0.25 nM | 5.3e-05 s⁻¹ | 210000 M⁻¹ s⁻¹ | B7
0.54 nM | 5.4e-05 s⁻¹ | 100000 M⁻¹ s⁻¹ | B8
0.23 nM | 0.00014 s⁻¹ | 610000 M⁻¹ s⁻¹ | B9
0.43 nM | 5.6e-05 s⁻¹ | 130000 M⁻¹ s⁻¹ | B10
